Data reported in patent US20230074436A1 (DENALI THERAPEUTICS, published 2023).
No end group written: not given here. *: point of attachment. Biotin = O=C1N[C@H]2[C@H](CS[C@H]2CCCCC(=O)*)N1

Legend:
[1] = biological target: human alpha-synuclein monomer (human, UniProt P37840 1-140); assay: direct ELISA on coated antigen;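 also: plates coated with recombinant human, mouse or rat alpha-synuclein, purified antibody titrated 10 µg/mL down to 0.6 ng/mL for 1 h, bound antibody detected by anti-rat HRP with TMB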
Description: 96-well Nunc plates were coated with 50 μL of recombinant human, mouse, or rat alpha-synuclein at a concentration of 1 μg/mL in PBS at 4° C. overnight. The plates were then washed three times with PBST and blocked with PBS containing 3% BSA at room temperature for 1 hour. Purified antibody was diluted by serial dilution methods, from 10 μg/mL to 0.6 ng/mL, and 50 μL of the antibody solution was added to the alpha-synuclein-coated wells. The plates were incubated for 1 hour at room temperature, then washed three times with PBST. Secondary detection antibody (goat anti-rat HRP (obtained from Southern Biotech)) was added 50 μL/well, 1:5,000 diluted in BSA-PBS solution. Plates were incubated for 1 hour at room temperature, then washed three times with PBST. Plates were subsequently developed with 50 μL/well of TMB substrate (Thermo Fisher) and quenched with 50 μL/well of 1 N sulfuric acid. The signal was quantified on a BioTek® plate reader at A450.

[2] = biological target: T1, asyn_113-127_113A (human); assay: Ala-scan peptide ELISA, row C, run 1; also: test concentration or dose not given here
T1 construct: substitution is already in the entry; also called pep2
T1 peptide: Biotin-AEDMPVDPDNEAYEM

[3] = biological target: T2, asyn_113-127_114A (human); assay: Ala-scan peptide ELISA, row C, run 1; also: test concentration or dose not given here
T2 construct: substitution is already in the entry; also called pep3
T2 peptide: Biotin-LADMPVDPDNEAYEM

[4] = biological target: T3, asyn_113-127_116A (human); assay: Ala-scan peptide ELISA, row C, run 1; also: test concentration or dose not given here
T3 construct: substitution is already in the entry; also called pep5
T3 peptide: Biotin-LEDAPVDPDNEAYEM

[5] = biological target: T4, asyn_113-127_117A (human); assay: Ala-scan peptide ELISA, row C, run 1; also: test concentration or dose not given here
T4 construct: substitution is already in the entry; also called pep6
T4 peptide: Biotin-LEDMAVDPDNEAYEM

[6] = biological target: T5, asyn_113-127_118A (human); assay: Ala-scan peptide ELISA, row C, run 1; also: test concentration or dose not given here
T5 construct: substitution is already in the entry; also called pep7
T5 peptide: Biotin-LEDMPADPDNEAYEM

[7] = biological target: T6, asyn_113-127_119A (human); assay: Ala-scan peptide ELISA, row C, run 1; also: test concentration or dose not given here
T6 construct: substitution is already in the entry; also called pep8
T6 peptide: Biotin-LEDMPVAPDNEAYEM

[8] = biological target: T7, asyn_113-127_120A (human); assay: Ala-scan peptide ELISA, row C, run 1
T7 construct: substitution is already in the entry; also called pep9
T7 peptide: Biotin-LEDMPVDADNEAYEM
Description: (§1) 96-well Nunc plates were coated with 50 μL per well of 1 μg/mL streptavidin (from Jackson Immuno Research Laboratory) in PBS at 4° C. overnight. The plates were washed three times with PBST, and blocked with PBS containing 3% BSA at room temperature for 1 hour. The N-terminal biotinylated peptides were dissolved in Milli Q water to a concentration of 2 mg/mL, then further diluted to a concentration of 2 μg/mL with PBS. 50 μl of the diluted peptide was applied to the streptavidin-coated plates and incubated at 4° C. overnight. 2 μg/mL of biotinylated human alpha-synuclein was used as the positive control. The plates were washed three times with PBST before use. Purified antibody was diluted by serial dilution methods, from 20 μg/mL to 1 ng/mL, and 50 μL of the antibody solution was added to the peptide-coated wells. The plates were incubated for 1 hour at room temperature, then washed three times with PBST. Secondary detection antibody (goat anti-rat HRP (obtained from Southern Biotech)) was added with 1:5,000 dilutions and incubated for 1 hour at room temperature, then washed three times with PBST. Plates were developed with 50 μL/well of TMB substrate (Thermo Fisher) and quenched with 50 μL/well of 1 N sulfuric acid. The signal was quantified on a BioTek® plate reader at A450. A parallel repeat was performed for each peptide in a separate plate.

[9] = biological target: T8, asyn_113-127_121A (human); assay: Ala-scan peptide ELISA, row C, run 1
T8 construct: substitution is already in the entry; also called pep10
T8 peptide: Biotin-LEDMPVDPANEAYEM
Description: as §1

[10] = biological target: T9, asyn_113-127_122A (human); assay: Ala-scan peptide ELISA, row C, run 1
T9 construct: substitution is already in the entry; also called pep11
T9 peptide: Biotin-LEDMPVDPDAEAYEM
Description: as §1

[11] = biological target: T10, asyn_113-127_123A (human); assay: Ala-scan peptide ELISA, row C, run 1
T10 construct: substitution is already in the entry; also called pep12
T10 peptide: Biotin-LEDMPVDPDNAAYEM
Description: as §1

[12] = biological target: T11, asyn_113-127_124G (human); assay: Ala-scan peptide ELISA, row C, run 1
T11 construct: substitution is already in the entry; also called pep13
T11 peptide: Biotin-LEDMPVDPDNEGYEM
Description: as §1

[13] = biological target: T12, asyn_113-127_124P (human); assay: Ala-scan peptide ELISA, row C, run 1
T12 construct: substitution is already in the entry; also called pep14
T12 peptide: Biotin-LEDMPVDPDNEPYEM
Description: as §1

[14] = biological target: T13, asyn_113-127_125A (human); assay: Ala-scan peptide ELISA, row C, run 1
T13 construct: substitution is already in the entry; also called pep15
T13 peptide: Biotin-LEDMPVDPDNEAAEM
Description: as §1

[15] = biological target: T14, asyn_113-127_126A (human); assay: Ala-scan peptide ELISA, row C, run 1
T14 construct: substitution is already in the entry; also called pep16
T14 peptide: Biotin-LEDMPVDPDNEAYAM
Description: as §1

[16] = biological target: T15, asyn_113-127_127A (human); assay: Ala-scan peptide ELISA, row C, run 1
T15 construct: substitution is already in the entry; also called pep17
T15 peptide: Biotin-LEDMPVDPDNEAYEA
Description: as §1

[17] = biological target: T16, biotinylated human alpha-synuclein (human, UniProt P37840 1-140); assay: Ala-scan peptide ELISA, row C, run 1
Description: as §1

[18] = biological target: T17, asyn_113-127 (human); assay: Ala-scan peptide ELISA, row F, run 2
T17 construct: also called pep1
T17 peptide: Biotin-LEDMPVDPDNEAYEM
Description: as §1

[19] = biological target: T1, asyn_113-127_113A; assay: Ala-scan peptide ELISA, row F, run 2
Description: as §1

[20] = biological target: T2, asyn_113-127_114A; assay: Ala-scan peptide ELISA, row F, run 2
Description: as §1

[21] = biological target: T18, asyn_113-127_115A (human); assay: Ala-scan peptide ELISA, row F, run 2
T18 construct: substitution is already in the entry; also called pep4
T18 peptide: Biotin-LEAMPVDPDNEAYEM
Description: as §1

[22] = biological target: T3, asyn_113-127_116A; assay: Ala-scan peptide ELISA, row F, run 2
Description: as §1

[23] = biological target: T4, asyn_113-127_117A; assay: Ala-scan peptide ELISA, row F, run 2
Description: as §1

[24] = biological target: T5, asyn_113-127_118A; assay: Ala-scan peptide ELISA, row F, run 2
Description: as §1

[25] = biological target: T6, asyn_113-127_119A; assay: Ala-scan peptide ELISA, row F, run 2
Description: as §1

[26] = biological target: T7, asyn_113-127_120A; assay: Ala-scan peptide ELISA, row F, run 2
Description: as §1

[27] = biological target: T8, asyn_113-127_121A; assay: Ala-scan peptide ELISA, row F, run 2
Description: as §1

[28] = biological target: T9, asyn_113-127_122A; assay: Ala-scan peptide ELISA, row F, run 2
Description: as §1

[29] = biological target: T10, asyn_113-127_123A; assay: Ala-scan peptide ELISA, row F, run 2
Description: as §1

[30] = biological target: T11, asyn_113-127_124G; assay: Ala-scan peptide ELISA, row F, run 2
Description: as §1

[31] = biological target: T12, asyn_113-127_124P; assay: Ala-scan peptide ELISA, row F, run 2
Description: as §1

[32] = biological target: T13, asyn_113-127_125A; assay: Ala-scan peptide ELISA, row F, run 2
Description: as §1

[33] = biological target: T14, asyn_113-127_126A; assay: Ala-scan peptide ELISA, row F, run 2
Description: as §1

[34] = biological target: T15, asyn_113-127_127A; assay: Ala-scan peptide ELISA, row F, run 2
Description: as §1

[35] = biological target: T16, biotinylated human alpha-synuclein; assay: Ala-scan peptide ELISA, row F, run 2
Description: as §1

B1: 20H4 (antibody, rat IgG2b, V domains shown)
VH: AVQLVESGGGLVQPKESLKISCAASGFTFSNAAMYWVRQAPGKGLELLARIRTKPNNYATYHADSVKGRFTISRDDSQSMVYLHMGNLKTEDTAMYYCTADMATGDYWGPGVMVTVSS
VL: DIQMTQSPPVLSVSVGDRVTLSCKASQNINKNLDWYQQKHGEAPKPLIYSTNNLQTGVPSRFSGSGSGTDYTLTISSLQPEDVATYYCYQYKSAWTFGGGTKLELR
notes: also called clone 20H4; rat 20H4
Bmax (O.D. at 450 nm) [1]: 0.83 OD | EC50 [1]: 0.18 nM | A450 [2]: 0.498 OD | A450 [3]: 0.417 OD | A450 [4]: 0.48 OD | A450 [5]: 0.494 OD | A450 [6]: 0.403 OD | A450 [7]: 0.059 OD | A450 [8]: 0.323 OD | A450 [9]: 0.443 OD | A450 [10]: 0.052 OD | A450 [11]: 0.476 OD | A450 [12]: 0.34 OD | A450 [13]: 0.051 OD | A450 [14]: 0.049 OD | A450 [15]: 0.371 OD | A450 [16]: 0.379 OD | A450 [17]: 0.588 OD | A450 [18]: 0.148 OD | A450 [19]: 0.159 OD | A450 [20]: 0.139 OD | A450 [21]: 0.075 OD | A450 [22]: 0.165 OD | A450 [23]: 0.163 OD | A450 [24]: 0.172 OD | A450 [25]: 0.045 OD | A450 [26]: 0.111 OD | A450 [27]: 0.143 OD | A450 [28]: 0.049 OD | A450 [29]: 0.151 OD | A450 [30]: 0.133 OD | A450 [31]: 0.047 OD | A450 [32]: 0.051 OD | A450 [33]: 0.169 OD | A450 [34]: 0.162 OD | A450 [35]: 0.284 OD
